Test results as given in the DeepSol protein solubility set.

Assay: soluble on expression in E. coli; label from the status in PepcDB or PDB records

Row | Sequence | soluble on expression in E. coli
1 | MSAVLKKNKPFSILLMGTDTGALGRSDVGRTDTLMVATINPTKETAYLTSIPRDTRVTVGSGVNASVQKINAAYTIGGSKTAVKTVENLLDIPIDFYAIVNMGGLEKMVDAVGGVDVTPPLTFHYGAANVTKGKKTHLNGKQALAYSRMRHEDPLGDYGRQKRQRQVLQKMVVKAAGLSSITRYQTILKSLNGNLKTDLTFDDLMQIRAKYGDASHHIKSETLQGQDAMIDGLSYQVPTTSELKKVSNHIRKTLELANTTKFTTDADTDTTGSTAYGSSDNSGYGYLEHHHHHH | soluble
2 | LLLFFPLGLQQPLLLLLSPPFQHEIQRRKEEIKEEKKRKEMAKQERLEIASLSNQDHTSKKDPGGHRTAAILHGGSPDFVGNGKHRANSSGRSRRERQYSVCNSEDSPGSCEILYFNMGSPDQLMVHKGKCIGSDEQLGKLVYNALETATGGFVLLYEWVLQWQKKMGPFLTSQEKEKIDKCKKQIQGTETEFNSLVKLSHPNVVRYLAMNLKEQDDSIVVDILVEHISGVSLAAHLSHSGPIPVHQLRRYTAQLLSGLDYLHSNSVVHKVLSASNVLVDAEGTVKITDYSISKRLADICKEDVFEQTRVRFSDNALPYKTGKKGDVWRLGLLLLSLSQGQECGEYPVTIPSDLPADFQDFLKKCVCLDDKERWSPQQLLKHSFINPQPKMPLVEQSPEDSGGQDYVETVIPSNRLPSAAFFSETQRQFSRYFIEFEELQLLGKGAFGAVIKVQNKLDGCCYAVKRIPINPASRQFRRIKGEVTLLSRLHHENIVRYYNAWIERHERPAGPGTPPPDSGPLAKDDRAARGQPASDTDGLDSVEAAAPPPILSSSVEWSTSGERSASARFPATGPGSSDDEDDDEDEHGGVFSQSFLPASDSESDIIFDNEDENSKSQNQDEDCNEKNGCHESEPSVTTEAVHYLYIQMEYCEKSTLRDTIDQGLYRDTVRLWRLFREILDGLAYIHEKGMIHRDLKPVNIFLDSDDHVKIGDFGLATDHLAFSADSKQDDQTGDLIKSDPSGHLTGMVGTALYVSPEVQGSTKSAYNQKVDLFSLGIIFFEMSYHPMVTASERIFVLNQLRDPTSPKFPEDFDDGEHAKQKSVISWLLNHDPAKRPTATELLKSELLPPPQMEESELHEVLHHTLTNVDGKAYRTMMAQIFSQRISPAIDYTYDSDILKGNFSIRTAKMQQHVCETIIRIFKRHGAVQLCTPLLLPRNRQIYEHNEAALFMDHSGMLVMLPFDLRIPFARYVARNNILNLKRYCIERVFRPRKLDRFHPKELLECAFDIVTSTTNSFLPTAEIIYTIYEIIQEFPALQERNYSIYLNHTMLLKAILLHCGIPEDKLSQVYIILYDAVTEKLTRREVEAKFCNLSLSSNSLCRLYKFIEQKGDLQDLMPTINSLIKQKTGIAQLVKYGLKDLEEVVGLLKKLGIKLQVLINLGLVYKVQQHNGIIFQFVAFIKRRQRAVPEILAAGGRYDLLIPQFRGPQALGPVPTAIGVSIAIDKISAAVLNMEESVTISSCDLLVVSVGQMSMSRAINLTQKLWTAGITAEIMYDWSQSQEELQEYCRHHEITYVALVSDKEGSHVKVKSFEKERQTEKRVLETELVDHVLQKLRTKVTDERNGREASDNLAVQNLKGSFSNASGLFEIHGATVVPIVSVLAPEKLSASTRRRYETQVQTRLQTSLANLHQKSSEIEILAVDLPKETILQFLSLEWDADEQAFNTTVKQLLSRLPKQRYLKLVCDEIYNIKVEKKVSVLFLYSYRDDYYRILF | soluble
3 | MEYIPDNSDEGRIVAMTLAVALRRALASVLGVSATELGYAVRPVRLDNEQSVLAVQLYDIISGGAGFASSAPLHIEAVLKGMVKQLGCRHCDTACSECLLDSQTRHDHDQLDRKAAQAWLGEDFSHYIGLPEAEKLEHHHHHH | not soluble
4 | GPGSMLRNTDVRLFSTFALNPETSVAPHGPPRGLVNRYVSMGLPPWAAWCNKVNRYSLYRMSGVTQRSFLPKPPQEMDVIWLNERVRERVRTSRQVQNVYRQLKYPYVKTGIHYSDVLDHWVQVPMVEAAMFEVEKDGGFDNFILKRSGPELRSTYGERIRRHILVRQKEIQKNFVLQKQAQMLVESMEKEILPMEDGKKVEEVLEKYGIDKEQLLRDIARAAVAKKQQLASAVPQPSHVEVSTN | not soluble
5 | MPTYKLTYFDGRGLAEPARMLFHLGGVPFEDSRIPVDMKTGLIMNPELADVKKKAPFGKYPVLKIDDIEIAQSAAINRYLARQFGFAGKNPIEEAQADSYIDQCQEYNTSFRACMYATLQGKPEEEVQKIREEVYIPAQNKFYEIFSDILNRNKSGFLVGDSLTWADLVIADHLYSLDTMGMLTHEDAWRCETLKKFQEKIYEHPLLKGYIASRPKGAF | not soluble
6 | MGSDKIHHHHHHMSIAHQNAHTIIRDILSKQHIERVWFVGCGGSLTGFWPGKYFLDCEAKKLAVGYVTSNEFVHATPNALGKNSVVILASQQGNTAETVEAARIARQKGAATIGLVYTPGTPLCEHSDYTIKYCWARYPETVDPTQQKAAYSLWLALEVLAQTEGYAHYDEMVSAFASFESVVRGAQQQVQADARHFAEAWKTEKVIYMMGSGPSFGAAHQESICILLEMQWINSASIHSGEYFHGPFEITETGTPFILLKSSGRTRPLDDRAIRFIERYQGKLQIIDVEKVGINALHASVREYFCGLLHNCVLDVYNLALATARNHPLTTRRYMWKVEY | not soluble
7 | MGSSHHHHHHGGTGENLYFQGGSGTAPPGSPAFCPPPAQYQYAYVPAASYVAASSCVGRGNNGGPLPYPLQPEAAPGYGEEQTSLLWNTRLFGLSTDVPSAMDSVMCIYCISSTHFNYLYRQQRGMFDPITAALLCFDVFWCMQLWPVVTPLSSITLHTLITRRELRKRYGLVGNDLFVKMDRLNADTAAATEAGETGAQAEEATTAEVESQPHRARDSDVTAEAAAAEPAGTGEAAAEVISVTPPATAPSEAAAPRTGESDVMAHTPRRVCHGLRS | not soluble
8 | MGHHHHHHSHMKQVAVISGKGGTGKTTFSATIHALEGGVVADCDVDAPNLHILLKPQILKAEDFIASKKARIMPEKCSSCGLCYDLCRFGAVVAEDGYYVDEKKCEGCAFCFNVCPERAIEMENVKTGDLYVSKTEWGYFVHARLKPGEENTGRLVTEVKNRAKEIAEESNAEFLIVDSAPGVGCPVMASLTGVDAAIIVTEPTVSGLSDMLRILELCEHFRIRPFVVVNKFDLNVNIASEIESYCSENGVEFAGRVPFDKAIPEQIANLNFPFSGKAADKMVEIWKKLRE | not soluble
9 | MGSDKIHHHHHHMMDLEGYVRRCLRKKIPENKIIEDGFKRILEIKEDVDEEFAKKFIKAILEEVKTTEKFREIDDENLKTLLKYPKSGVTMGRMGVGSRGEGDFFVHREIARIVKSTKVKAYVSAEEQDDAGIVRADAKYIVAAIDGTHSRLSDFPFLGGFHVTRAALRDIYVMGAEAVALISDVHLADDGDVGKIFDFTAGICAVSEAVNVPLIGGSTLRVGGDMVIGDRLVSAVGAIGVIKEGEPTARRNAEVGDVILMTEGSGGGTITTTALYYGWFDVIYETLNVDFIKACQNLIRSGLIKKIHAMTDVTNGGLRGDAYEISKTAKVSLIFDKEKVYKTINPKVLEMLEVLNIDPLGVSTDSLMIICPEEYADDIKKVTGAIEVGYVEEGEESYLVDGNKKIPLKPMFRESAYTPVKKVVGERKPGDFEEMKEKVRRACDEAIKKKDFVVELLKERKKKF | not soluble
10 | MAKKLFAFLGIGDYKSVEYYFQNKKEGYKTEYIQEAITKLLNEQDLNVTVFVTAEARKKHWEPENNKGLESRLKKLNINCKAVNIPDGKANDDVWKIFTSVYSEIEFNDEIYVDVTHSLRNIPIIFMSVLNYAKVTKNCTIKGIFYGAYEAKENERAPIYDLTLFDQIGEWSSGVEQLLTTGECEMFCSTVEKTLDPLLREAKGKDELIKLVKKCSKLIKEFYTDLKLVRGKSVLEDGRKLYQVLCEIKALNTEKHITMQPFFHILERVENQVAFFQNENLIENILECVKLCKKFGQYQQAYTFLRENIINYVCINTGLDWKKEDPDRLKAEELIGKLYMRKIKKVQIEVSEDIKSILENGEDFICDDAIELFGELIEFRNDLDHAQFRMINPSKDKITCKLDSFIERFEKYYISK | not soluble
11 | MQMLDRLESEILADRVSEESRRWLASCGLTVEQMKNQMDPVYTPARKIHLYHCDHRGLPLALISTEGATAWCAEYDEWGNLLSDENPHHLQQLIRLPGQQYDEESGLYYNRHRYYDPLLGRYITQDPIGLKGGWNFYQYPLNPVINVDPQGLVDINLYPESDLIHSVADEINIPGVFTIGGHGTPTSIESATRSIMTAKDLAYLIKFDGNYKDGMTVWLFSCNTGKGQNSFAS | soluble
